Test results from patent publication US11994512B2, “Single-cell genomic methods to generate ex vivo cell systems that recapitulate in vivo biology with improved fidelity” (Massachusetts Institute of Technology, priority 2018, dated 2024).

B1: Q91WU0 (protein, UniProt Q91WU0 1-561, looked up)
chain: MFLSTLFLVSLATCVICGNPSSPPVVDTAHGKVLGKHVNVEGFSQPVAVFLGIPFAKPPLGSLRFAPPQPAEPWSSVKNATTYPPMCSQDAARGQAVNDLITNRKEKIHLEFSEDCLYLNIYTPADFSKNSRLPVMVWIHGGGLKLGGASSFDGRALSAYENVVVVAIQYRLSIWGFFSTGDEHSRGNWGHLDQVAALHWVQDNIANFGGDPGSVTIFGESAGGYSVSILILSPLSKNLFHRAISESGVAFIPGMFTKDVRPITEQIAVTAGCKTTTSAVIVHCMRQKTEEELLEIMHKLNLYKLSLQGDTKNSDQFVTSVLDGVVLPKDPKEILAEKNFNTVPYIVGINKQECGWLLPTMTGFLPADVKLDKKKAIALLEQFASMTGIPEDIIPVAVEKYTKGSDDPDQIREGVLDAMGDVAFGVPSVIVSRGHRDTGAPTYMYEYQYYPSFSSPQRPKNVVGDHADDVYSVFGAPILREGASEEEINLSKMVMKFWANFARNGNPNGKGLPHWPKYDQKEGYLHIGGTTQQAQRLKEEEVTFWTQSLAKKQPQPYHNEL
modifications: full-length
B2: Q91Y74 (protein, UniProt Q91Y74 1-333, looked up)
chain: MTSKSHWKLLALALVLVVVMVWYSISREDRYIEFFYFPISEKKEPCFQGEAERQASKIFGNRSREQPIFLQLKDYFWVKTPSTYELPFGTKGSEDLLLRVLAITSYSIPESIKSLECRRCVVVGNGHRLRNSSLGGVINKYDVVIRLNNAPVAGYEGDVGSKTTIRLFYPESAHFDPKIENNPDTLLVLVAFKAMDFHWIETILSDKKRVRKGFWKQPPLIWDVNPKQVRILNPFFMEIAADKLLSLPIQQPRKIKQKPTTGLLAITLALHLCDLVHIAGFGYPDASNKKQTIHYYEQITLKSMAGSGHNVSQEAIAIKRMLEMGAVKNLTYF
modifications: full-length
B3: Q920F6 (protein, UniProt Q920F6 1-1248, looked up)
chain: MGHLELLLVENFKSWRGRQVIGPFKRFTCIIGPNGSGKSNVMDALSFVMGEKTTNLRVKNIQELIHGAHTGKPVSSSASVTIIYIEDSGEEKTFTRIIRGGCSEYHFGDKPVSRSVYVAQLENIGIIVKAQNCLVFQGTVESISMKKPKERTQFFEEISTSGEFIGEYEAKKKKLQKAEEDAQFHFNVKKNVAAERKHAKIEKEEAEHYQNLLEELKINKIQLMLFQLYYNEEKINVLNTELEQMDGNLSVVKDTLSHHENIFKAKKKDYGMLTRQLQQTAKELKSVEAILNQKRPQYIKAKENTSHHLKKLDLSKKLITDNEKQCSKQEDGIRALVAELADLDRAWKSFEKQMEEKILQKGRDIELENSQLDRYKLLKEQVRRKVGIMTQQLEKLQWEQKAEKERLAFEKRRHGDTQGNLKQIKEQIEEHKKRIEKLEEYTKTCMDCLEDKKQQEEALKKEIENTKSRMSEVNEELSLIRNELQNAGIDNHEGKRQQKRAEVLEHLKRLYPDSVFGRLLDLCHPIHKKYQLAVTKLFGRYMVAIVVASEKIAKDCIRFLKAERAEPETFLALDYLDIKPINERLREIKGCKMMIDVIKTQFPQLKKVIQFVCGNGLVCETVEEARHIAFGGPERRKAVALDGTLFLKSGVISGGSSDLKHKALCWDEKELHNLRDKRSQLVQELKELMKTLRKETDLKQIQTLVQGTNTRLKYSQNELEMIKKKHLATFYREQSQLQSELLNIDSQCTMLSEGINKQQQKIEEFQDKIDEVEDDIFQDFCEEIGVENIREFENKHVKQQQENDQKRLEFEKQKTRLNIQLEYSRNQLKKKLNNIDTLKTTIQKGKEDIDNLKKTEEECLKIVEELMVKQEQIKEVLATQSSNIEKIHIQIEEERKKVLAVDREVGKLQKEVVIIQGSLEQKLLEKHNLLLDCKVQDIDISLVLGSLEDIIEMELTETESTQATADIYEKEASIQIDYSPLREDLKALQSDKEVEAHLTLLLQQVASQENTLLKTTAPNLRAQENLKTVRDKFQESADVFEASRKEARICRQEFEQVKRRRYDAFSQCFEHISVSIDQIYKKLCRNNSAQAFLSPENPEEPYLDGISYNCVAPGKRFMPMDNLSGGEKCVAALALLFAVHSFRPAPFFVLDEVDAALDNTNIGKVSSYIKEQSQEQFQMIIISLKEEFYSKADALIGVYPEHNECMFSHVLTLDLSKYPDTEDQEGSRSHRKPRVPRVSMSPKSPQSR
modifications: full-length
B4: Q921T2 (protein, UniProt Q921T2 1-595, looked up)
chain: MAGERWQAEGPGEGWAIYVTPRAPIREGRRRLDPRNGDSSDAPAYGAHPSRRGRREVRFSEEPAEVYGDFEPRAAKERSPGGRRTPPEKFRPASAGEEVRESAYNLRSRPRRQRRAQEAEEMKTRRSARLEQHSQQPQLSPATSGRGLRDSPSSSEDREEDEPSSRPVTSQTASKKTLRTPEASVMNEDPISNLCRPPLRSPRLDSTYQTNGNTKTNEREATIVQQVNFFEEGETEDDLESSYSDITIRARSSDSLESRDEATPAAGNHPDSLRGLPHNQDFPAHENQPLLLTSGCQENPQEWVDRAVRMRSRMAYNNIQKSNFGNQSPSTSRPQSAIHHPNEPSVKIKWWLLGLVAILAVGLFWFFHTPAVETTAVQEFQNQMKQLQSKYQSQNEKLWKRGTTFLEKHLNSSLPRPQPAILLLTAAQDAAEVLKCLSEQIADAYSSFRSVRAIRIDGAGKAAQDSDLVKHEVDQELTDGFKNGQNAAVVHRFESLPAGSTLIFYKYCDHENAAFKDVALVLTVLLEEKTLEASLGLKEIEEKVRDFLKVKFTSSSTASSYNHMDPDKLNGLWSRISHLVLPVQPENTLKAGSCL
modifications: full-length
B5: Q921X9 (protein, UniProt Q921X9 1-517, looked up)
chain: MARAWGLLLAIGVVLPTWLSSTKVSSLIERISDPKDLKKLLRTRNNVLVLYSESEVAAESHLKLLSTVAQAVKGQGTVCWVDCGDAESRKLCKKMKVDLSPKDKKIELFHYQDGAFHMQYDRAVTLKSIVAFLKDPKGPPLWEEDPGAKDVVHIDSEKDFRRLLKREEKPLLMMFYAPWCSMCKRIMPHFQKAATQVRGHIVLAGMNVYPSEFENIKEEYNVRGYPTICYFEKGRFLFPYENYGSTAEDIVEWLKNPLPPQPQVPETPWADEGGSVYHLTDEDFDQFVKEHSSVLVMFHAPWCGHCKKMKPEFESAAEVLHGDAESSGVLAAVDATVNEALAGRFHISAFPTLKYFKNGEQQAVPALRTKKKFIEWMQNPEAPPPPEPTWEEQQTSVLHLVGDNFRDTLKKKKHTLVMFYAPWCPHCKKVIPHFTATADAFKEDRKIACAAVDCVKDKNQDLCQQEAVKAYPTFHYYHYGKLVEKYESDRTELGFTSFIRTLREGDLKRLEKRREEL
modifications: full-length
B6: Q99LD8 (protein, UniProt Q99LD8 1-285, looked up)
chain: MGTPGEGLGRCSHALIRGVPESLASGEGAGAGLPALDLAKAQREHGVLGGKLRQRLGLQLLELPPEESLPLGPLLGDTAVIQGDTALITRPWSPARRPEVDGVRKALQDLGLRIVEMGDENATLDGTDVLFTGREFFVGLSKWTNHRGAEIVADTFRDFAVSTVPVSGSSHLRGLCGMGGPRTVVAGSSEAAQKAVRAMAALTDHPYASLTLPDDAASDCLFLRPGLPGATPFLLHRGGGDLPNSQEALQKLSDVTLVPVSCSELEKAGAGLSSLCLVLSTRPHC
modifications: full-length
B7: Q99LZ3 (protein, UniProt Q99LZ3 1-223, looked up)
chain: MTEVLDLHGQDSDGGSEEMVLTPAELIEKLEQAWMNEKFAPELLESKAEIVECVMEQLEHMEENLRRAKKGDLKVSIHRMEMERIRYVLSSYLRCRLMKIEKFFPHILEKEKVRSEGEPSSLSPEEFVFAKEYMDHTETHFKNVALKHMPPNLQKVDLLRAVPKPDLDSYVFLRVKERQENILVEPEADEQRDYVIDLEVGSQHLIRYKTIAPLVASGAVQLI
modifications: full-length
B8: Q99M01 (protein, UniProt Q99M01 1-451, looked up)
chain: MVCLALVRAAYEHIYLVRKVSHACRCHQHRAWSSKPAASQSAVQGAPGSVLEILGKSYPQDDHTNLTQKVLSKVGRNLHNQKFHPLWLIKERVKEHFYQQYMVRSRTPLFSVYDQLPPVVTTWQNFDSLLIPADHPSRKKGDNYYLNRAHMLRAHTSAHQWDLLHAGLNAFLVVGDVYRRDQIDCQHYPVFHQLEGVRLFSKHELFAGVKDGESLQLFEEGSRSAHKQETHTMEAVKLVEFDLKQVLTRLVTHLFGDGLEVRWVDCYFPFTHPSFEMEINFRGEWLEVLGCGVMEQQLVNSAGAQDRIGWAFGLGLERLAMVLYDIPDIRLFWSEDERFLKQFLLSDINQSVKFQPLSKYPAVFNDISFWLPSENYTENDFYDIVRTVGGDLVEKVDLIDKFEHPKTHRTSHCYRITYRHMERTLSQREVGNVHQAVQEAAVQLLGVEGRF
modifications: full-length
B9: Q99M54 (protein, UniProt Q99M54 1-266, looked up)
chain: MGSTQSVSGTPARPLPRNKQVARVADPRSPSAGIQRTPIQVESSPQPSLPAEQLNGLKQAQDPDPRSPTLGIARTPMKISGPDPQCSLVKELSEVLETEASESISSPELALPRETPLFYDLDLSSDPQLSPEDQLLPWSQAELDPKQVFTKEEAKQSAETIAASQNSDKPSRDPETPQSSGSKRSRRKANSKVLGRSPLTILQDDNSPGTLTLRQGKRPSALSENVKDLKEGVVLGTGRFLKAGGGAREPNQDHDKENQHFALLES
modifications: full-length

System: intracellular proteome of ENR+CD and ENR organoids
Test: LC-MS/MS TMT proteomics of ENR+CD versus ENR organoids
Format: cell-based, C57BL/6 mice
Settings: for Average logFC: ENR+CD versus ENR organoids, sample pairs in aggregate (n=4, 2 technical replicates from two biological donors); for M1-1 Log2 Median Normalized / M1-2 Log2 Median Normalized / M2-1 Log2 Median Normalized / M2-2 Log2 Median Normalized: protein abundance ratio ENR+CD versus ENR organoids, LC-MS/MS TMT proteomics; for M1-1 Log2 Median Normalized: sample pair M1-1; for M1-2 Log2 Median Normalized: sample pair M1-2; for M2-1 Log2 Median Normalized: sample pair M2-1; for M2-2 Log2 Median Normalized: sample pair M2-2; for change: up = enriched in ENR+CD, down = enriched in ENR, FDR<0.05 and log fold change cut-off

Row | Molecule | Average logFC | M1-1 Log2 Median Normalized | M1-2 Log2 Median Normalized | M2-1 Log2 Median Normalized | M2-2 Log2 Median Normalized | change
1 | B1 | −1.598 | −1.5 | −1.991 | −2.4445 | −0.456 | down
2 | B2 | −1.232 | −0.783 | −1.258 | −1.9425 | −0.946 | down
3 | B3 | −1.932 | −1.931 | −0.989 | −2.1915 | −1.967 | down
4 | B4 | 1.217 | 1.233 | 1.176 | 1.0935 | 1.365 | up
5 | B5 | 1.302 | 1.535 | 1.138 | 1.0115 | 1.523 | up
6 | B6 | 1.289 | 1.314 | 1.577 | 1.1265 | 1.14 | up
7 | B7 | −1.212 | −1.61 | −1.013 | −0.7435 | −1.481 | down
8 | B8 | −1.171 | −0.869 | −0.578 | −1.7495 | −1.486 | down
9 | B9 | – | −1.383 | −1.488 | −0.4185 | −1.548 | down
